Results from the supplement of paper PMC10126150.
± gives the standard deviation of the averaged measurements.

test system: ATP; assay: switch fluorescence ratio, 500 uM ATP over buffer (Cy3 cluster intensity, sum of 5 cycles each) (fold (ratio)); higher = stronger signal-on switching upon ATP binding; sequences stand for … in TCGTCGGCAGCGTCAGATGTGTATAAGAGACAGTTTTTTTTTTTTTTTTTTTTTTTTT…TC; details: aptamer strand: ATP DNA aptamer (quencher-CACCTGGGGGAGTATTGCGGAGGAAGG + anchor), 100 nM annealed; ATP concentration: 500 uM
How it was run: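 After annealing to 100 nM quencher-labelled ATP aptamer, Cy3-labelled switching-strand clusters on a modified Illumina MiSeq flow-cell were imaged in selection buffer. A second image followed after 15 min with 500 uM ATP at 22 °C, and five such buffer/ATP cycles were done, each separated by NaOH stripping and re-annealing. The fluorescence ratio, averaged per switch-domain sequence, is summed target-cycle over summed buffer-cycle Cy3 intensity per cluster, with clusters outside 100-1000 RFU excluded.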
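Further: ATP exposure 15 min at 22 °C before imaging.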

Row | Sequence | switch fluorescence ratio
1 | TATAATACTT | 1.026 ± 0.0038
2 | TATAATGTGG | 0.967 ± 0.015
3 | TATAATGTTT | 1.02 ± 0.048
4 | TATAATTGGT | 0.9616 ± 0.007
5 | TATACCATGG | 0.971 ± 0.046
6 | TATACCATTA | 0.997 ± 0.051
7 | TATACCCTTT | 1 ± 0.052
8 | TATACGACTT | 1.03 ± 0.029
9 | TATACGCTTG | 1.001 ± 0.0079
10 | TATACGGGGG | 0.992 ± 0.049
11 | TATACGTTTC | 1.04 ± 0.028
12 | TATACTGTAA | 1.14 ± 0.031
13 | TATAGAGGG | 0.969 ± 0.011
14 | TATAGCCGGG | 1 ± 0.069
15 | TATAGGACTA | 1.01 ± 0.014
16 | TATAGGCTTC | 1 ± 0.023
17 | TATAGGGTCA | 0.979 ± 0.031
18 | TATAGGTCGG | 0.9695 ± 0.0057
19 | TATAGGTTTG | 1.01 ± 0.042
20 | TATAGTGATG | 1.01 ± 0.019
21 | TATAGTTTGC | 0.969 ± 0.026
22 | TATATACGTT | 1.04 ± 0.026
23 | TATATAGGAA | 1.018 ± 0.0064
24 | TATATATAAA | 1.09 ± 0.087
25 | TATATCATTG | 0.965 ± 0.011

Row | Sequence | switch fluorescence ratio
26 | TATATGAATA | 1.006 ± 0.0023
27 | TATATGAGAG | 0.973 ± 0.017
28 | TATATGGAGG | 0.956 ± 0.032
29 | TATATGTAGA | 1.03 ± 0.011
30 | TATATGTGTG | 0.9661 ± 0.0073
31 | TATATTATTA | 0.985 ± 0.031
32 | TATATTGACC | 1.04 ± 0.03
33 | TATATTGGAT | 0.985 ± 0.025
34 | TATATTGGGC | 0.968 ± 0.049
35 | TATATTTGGG | 0.998 ± 0.034
36 | TATATTTGGT | 0.996 ± 0.039
37 | TATATTTTTA | 0.9819 ± 0.0079
38 | TATCAAAGGC | 1.014 ± 0.0082
39 | TATCACCATA | 1.04 ± 0.079
40 | TATCACCGGC | 1.09 ± 0.031
41 | TATCACGGTA | 1.176 ± 0.011
42 | TATCAGAGGG | 1.02 ± 0.023
43 | TATCAGGGCT | 0.999 ± 0.057
44 | TATCAGGGGA | 1 ± 0.075
45 | TATCAGGGGT | 1.08 ± 0.073
46 | TATCATAAGT | 1.016 ± 0.0077
47 | TATCATCTTT | 1.01 ± 0.054
48 | TATCATTAGA | 1.01 ± 0.014
49 | TATCATTCGG | 1.01 ± 0.043
50 | TATCCTATTA | 1.003 ± 0.0036

Row | Sequence | switch fluorescence ratio
51 | TATCCTGGAC | 1.05 ± 0.045
52 | TATCGAAGTT | 1.013 ± 0.0018
53 | TATCGACAAT | 1.37 ± 0.47
54 | TATCGAGTGG | 0.979 ± 0.058
55 | TATCGCGGTG | 1.005 ± 0.005
56 | TATCGCTCAT | 0.9765 ± 0.0073
57 | TATCGGATTC | 1.02 ± 0.02
58 | TATCGGGTGT | 1.11 ± 0.092
59 | TATCGGTTCG | 0.9992 ± 0.0076
60 | TATCGTAGTG | 0.98 ± 0.038
61 | TATCGTCGGA | 0.9823 ± 0.0035
62 | TATCGTCTGG | 0.981 ± 0.015
63 | TATCGTTCTC | 0.989 ± 0.011
64 | TATCGTTGGA | 1.03 ± 0.018
65 | TATCTCTTTT | 1.01 ± 0.041
66 | TATCTGGGCC | 1.03 ± 0.011
67 | TATCTGTGCT | 0.994 ± 0.019
68 | TATCTTACCA | 0.988 ± 0.032
69 | TATCTTGGGC | 0.996 ± 0.083
70 | TATGAAAGGA | 1.011 ± 0.0047
71 | TATGAAGAGT | 1.01 ± 0.017
72 | TATGAATTGT | 1.014 ± 0.01
73 | TATGACAGGA | 0.995 ± 0.011
74 | TATGAGAGAG | 1.03 ± 0.02
75 | TATGAGATCG | 1.03 ± 0.069

Row | Sequence | switch fluorescence ratio
76 | TATGAGGATG | 1.01 ± 0.031
77 | TATGAGGGGA | 1.02 ± 0.032
78 | TATGAGTGAC | 1.02 ± 0.016
79 | TATGAGTGGG | 0.976 ± 0.018
80 | TATGATATGC | 1.032 ± 0.0011
81 | TATGATGCTC | 0.998 ± 0.043
82 | TATGATTGGC | 0.972 ± 0.061
83 | TATGCAACTT | 0.993 ± 0.015
84 | TATGCAGTA | 1.3 ± 0.038
85 | TATGCCCAGC | 1 ± 0.029
86 | TATGCCTTTT | 1.008 ± 0.0042
87 | TATGCGGGCG | 0.939 ± 0.072
88 | TATGCTAACT | 1 ± 0.051
89 | TATGCTTGA | 0.986 ± 0.036
90 | TATGCTTGGT | 1.015 ± 0.003
91 | TATGGAAGAG | 0.977 ± 0.054
92 | TATGGAAGCC | 0.982 ± 0.034
93 | TATGGAATGC | 1.35 ± 0.076
94 | TATGGACTAG | 1.01 ± 0.025
95 | TATGGAGAAC | 1.01 ± 0.035
96 | TATGGAGGGG | 0.991 ± 0.032
97 | TATGGCAACC | 1.03 ± 0.061
98 | TATGGCAAGG | 1.03 ± 0.051
99 | TATGGCCAGC | 0.994 ± 0.047
100 | TATGGCGGGG | 1.02 ± 0.03
